Test results from publication doi:10.1101/2025.08.01.668162.
Read-outs that look alike come from different tables or passages of the source.

What was measured:
[1] = molecular target: SEL1L S658P (mouse knock-in) (mouse (endogenous in MEFs and liver)) (UniProt Q9Z2G6); test: co-IP
[2] = molecular target: SEL1L S658P (mouse knock-in) (mouse (endogenous in MEFs and liver)) (UniProt Q9Z2G6); test: co-IP; remark: listed apart in the source

Sequence of UniProt Q9Z2G6 (Q9Z2G6 22-790, stated change not applied): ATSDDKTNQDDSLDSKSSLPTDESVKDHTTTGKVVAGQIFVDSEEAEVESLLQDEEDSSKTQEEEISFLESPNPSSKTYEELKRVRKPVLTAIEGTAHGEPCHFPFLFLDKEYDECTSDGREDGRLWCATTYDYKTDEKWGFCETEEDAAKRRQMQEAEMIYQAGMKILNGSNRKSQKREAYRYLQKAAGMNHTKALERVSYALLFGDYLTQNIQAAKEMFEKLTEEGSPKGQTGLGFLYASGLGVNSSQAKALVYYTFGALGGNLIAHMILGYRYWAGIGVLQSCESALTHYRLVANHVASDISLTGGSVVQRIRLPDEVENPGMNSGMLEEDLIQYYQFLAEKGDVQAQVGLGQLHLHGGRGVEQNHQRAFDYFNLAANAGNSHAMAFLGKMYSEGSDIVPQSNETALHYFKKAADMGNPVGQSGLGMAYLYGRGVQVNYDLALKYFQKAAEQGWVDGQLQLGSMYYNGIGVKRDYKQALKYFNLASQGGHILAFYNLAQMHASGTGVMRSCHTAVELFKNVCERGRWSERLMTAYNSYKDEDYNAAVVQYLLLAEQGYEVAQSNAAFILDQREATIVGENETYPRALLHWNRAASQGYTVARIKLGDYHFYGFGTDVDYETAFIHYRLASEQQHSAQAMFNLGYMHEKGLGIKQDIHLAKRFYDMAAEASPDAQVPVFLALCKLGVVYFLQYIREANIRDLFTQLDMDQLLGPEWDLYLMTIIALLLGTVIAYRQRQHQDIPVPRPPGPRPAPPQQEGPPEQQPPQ

For “HRD1 (mouse) (from UniProt Q9DBY1 1-612) (natural protein)”, the percent reduction of co-precipitated HRD1 against WT SEL1L [1] was 80% and the percent reduction of co-precipitated HRD1 against WT SEL1L [2] was 60%.
